This note sets out measurements from US20200062856A1 (XDCEXPLORER SHANGHAI, published 2020).

By EC50 is commonly meant the concentration needed to bring the measured effect to its halfway point. Usually Kd stands for the equilibrium constant for the complex coming apart. High values mean lower affinity, low ones higher affinity. The koff is the rate constant with which the complex falls apart. A high value points to a short-lived complex. As a reminder, the kon is a measure of how fast the partners come together.

Residue numbers refer to the chain shown, from its start. Read-outs that look alike come from different tables or passages of the source.

For assay [1], the target named is T1, human TPBG protein, full-length, on the cell surface (human, UniProt Q13641 32-420).
T1 sequence (looked up): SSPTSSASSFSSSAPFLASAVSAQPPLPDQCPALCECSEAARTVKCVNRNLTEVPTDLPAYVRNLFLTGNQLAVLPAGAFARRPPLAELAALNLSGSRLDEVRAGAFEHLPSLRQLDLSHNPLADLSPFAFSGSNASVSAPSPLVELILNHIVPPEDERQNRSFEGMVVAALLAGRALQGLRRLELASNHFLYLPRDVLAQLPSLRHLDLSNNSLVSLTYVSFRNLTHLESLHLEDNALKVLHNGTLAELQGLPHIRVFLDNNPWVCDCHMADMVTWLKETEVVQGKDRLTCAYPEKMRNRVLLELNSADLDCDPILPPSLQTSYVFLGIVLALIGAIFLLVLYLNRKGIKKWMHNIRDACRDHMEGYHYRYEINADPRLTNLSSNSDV
The experiment in a line: cell-based or functional assay.

For assay [2], the target named is T1, human TPBG protein, full-length, on the …. The experiment in a line: cell-based or functional assay. This is another data set of the same source.
The target in assay [3] is T2, cynomolgus TPBG protein, full-length, on the cell surface (cynomolgus, UniProt Q4R8Y9 35-420).
T2 construct: whole, on cells; also called cTPBG; CHOk1-cTPBG
T2 sequence (looked up): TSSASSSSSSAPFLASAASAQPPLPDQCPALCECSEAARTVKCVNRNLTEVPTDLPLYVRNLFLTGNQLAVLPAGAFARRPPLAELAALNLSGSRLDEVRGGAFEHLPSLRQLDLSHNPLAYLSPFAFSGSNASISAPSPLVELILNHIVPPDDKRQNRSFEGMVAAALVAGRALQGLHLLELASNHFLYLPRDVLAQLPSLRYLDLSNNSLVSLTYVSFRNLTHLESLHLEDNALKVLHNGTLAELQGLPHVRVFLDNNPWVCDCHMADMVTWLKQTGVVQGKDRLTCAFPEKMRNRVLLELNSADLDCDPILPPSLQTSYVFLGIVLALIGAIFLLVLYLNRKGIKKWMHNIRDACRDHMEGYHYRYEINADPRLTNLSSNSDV
The experiment in a line: FACS on CHOK1-cTPBG cells.

In assay [4] the target is T1, human TPBG protein, full-length, on the …. The experiment in a line: FACS on CHOK1-hTPBG cells.
A further assay has as its target T3, human TPBG-hFc protein (human, UniProt Q13641 32-355).
T3 construct: range 32-355; Expressed in HEK293 cells, purified on protein A; also called immunogen A; hFc tagged TPBG protein; not shown: human IgG Fc fragment of the pCpC vector
T3 sequence (looked up): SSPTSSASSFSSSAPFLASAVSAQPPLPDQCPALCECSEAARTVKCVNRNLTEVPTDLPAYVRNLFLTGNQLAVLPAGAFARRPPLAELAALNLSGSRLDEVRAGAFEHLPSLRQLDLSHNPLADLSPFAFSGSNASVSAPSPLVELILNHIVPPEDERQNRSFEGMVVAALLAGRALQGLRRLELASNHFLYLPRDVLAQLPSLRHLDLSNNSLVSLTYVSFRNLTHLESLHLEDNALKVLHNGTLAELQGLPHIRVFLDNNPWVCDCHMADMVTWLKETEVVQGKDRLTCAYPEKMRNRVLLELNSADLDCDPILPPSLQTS
The experiment in a line: ELISA, coated human TPBG-hFc. An outline of the steps:
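Plates coated overnight at 4° C. with human TPBG-hFc at 1.0 μg/mL, blocked with PBS/0.01% Tween 20/1% BSA, then purified humanized antibody variants bound 2 h at 37° C. HRP-labeled secondary antibody (2 h, 37° C.) with TMB detection, acid stop, A450 read. EC50 derived from OD450 values.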
(In an ELISA, binding on a coated surface is turned into a signal by an enzyme label.)

The target of assay [5] is T4, human TPBG antigen immobilized on a CM5 chip (human, UniProt Q13641 32-355, limits assumed).
T4 sequence (looked up): T3 sequence (looked up)
The experiment in a line: SPR (Biacore), human TPBG antigen immobilized on CM5 chip. As to the method:
To assess the binding specificity and affinity of the humanized anti-TPBG antibody, Biacore analysis was performed using human TPBG antigen immobilized on a CM5 chip. Biacore technique utilizes the change in the refractive index of surface layer after antibody binding to the TPBG antigen immobilized on the surface layer. The binding was determined by surface plasmon resonance (SPR) through detecting the laser refracted from the surface. Non-specific and specific interactions were distinguished by analysis of signal kinetics binding rate and dissociation rate. Chimeric antibodies 12B12 and 28D4 were used as controls.
A general note: Surface plasmon resonance follows binding to a sensor surface in real time, without labels.

Assay [6] concerns the target T5, mouse TPBG protein, full-length, on the cell surface (mouse, UniProt Q9Z0L0 32-426).
T5 construct: whole, on cells; also called mTPBG; CHOk1-mTPBG
T5 sequence (looked up): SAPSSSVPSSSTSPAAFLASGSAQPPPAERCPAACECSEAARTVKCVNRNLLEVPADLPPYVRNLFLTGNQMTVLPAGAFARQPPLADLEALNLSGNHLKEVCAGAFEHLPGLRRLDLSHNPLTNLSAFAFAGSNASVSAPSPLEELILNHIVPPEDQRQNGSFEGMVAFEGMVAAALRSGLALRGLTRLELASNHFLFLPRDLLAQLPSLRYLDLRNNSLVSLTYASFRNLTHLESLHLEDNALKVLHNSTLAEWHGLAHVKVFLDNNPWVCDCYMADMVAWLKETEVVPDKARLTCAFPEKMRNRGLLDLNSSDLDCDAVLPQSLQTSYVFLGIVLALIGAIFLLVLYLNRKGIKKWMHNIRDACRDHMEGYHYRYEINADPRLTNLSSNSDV
The experiment in a line: FACS on CHO-k1 cells with surface-expressed mouse TPBG, fluorescent secondary antibody, mean fluorescence intensity.

B1: Humanized Antibody 12B12-12-MMAF (antibody, V domains shown)
VH: EVQLVESGGGLVQPGGSLRLSCAASGFTFSNFGMHWVRQAPGKGLEWVSYISSGSTSFYYADTVKGRFTISRDNAKNSLYLQMNSLRDEDTAVYYCARTNSLLRGFFDAWGQGTTVTVSS
VL: DIVLTQTPLSLSVTPGQPASISCRASQSVSSSSYTYLHWYLQKPGQPPQLLIKSASNLESGVPDRFSGSGSGTDFTLKISRVEAEDVGVYYCQHSWEIPLTFGQGTKLEIK
modifications: MC-MMAF on cysteines reduced with TCEP (sites not given), DAR 3.0-5.0 per antibody
Regarding B1, in assay [1], the “IC50 of cell killing, NCI-H1568 cells (CellTiter-Glo, 5 days)” value turned out to be 0.066 nM. Also, in assay [2], the “IC50 of cell killing, MDA-MB-468 cells (CellTiter-Glo, 5 days)” value was 0.06 nM; the “IC50 of cell killing, NCI-H1568 cells (CellTiter-Glo, 5 days)” value is 0.05 nM; the “IC50 of cell killing, NCI-H1975 cells (CellTiter-Glo, 5 days)” value was determined as 0.13 nM.

B2: Humanized antibody 12B12-12 (antibody, V domains shown)
VH: B1 VH
VL: B1 VL
notes: also called h12B12-12
In turn, B2 had an EC50 in assay [3] of 10.3 nM. Further, it took 0.33 nM to reach a half-maximal effect in assay [4] (EC50). In the assay with human TPBG-hFc protein, this molecule had an EC50 of 0.206 nM. For the same molecule, in assay [5], the Kd was determined as 0.0186 nM, the koff worked out at 2.29e-05 s⁻¹ and the kon turned out to be 1.23e+06 M⁻¹ s⁻¹. Further, the binding result in assay [6] was “no binding (tested: 100 nM)”.

B3: Humanized antibody 12B12-15 (antibody, V domains shown)
VH: B1 VH with L11V, G16R, S49A, A75S, S78T, D88A
VL: B1 VL
notes: also called h12B12-15
In turn, B3 gave an EC50 in assay [3] of 0.87 nM. In assay [4], this molecule returned an EC50 of 0.37 nM. The molecule further gave an EC50 with human TPBG-hFc protein of 0.193 nM. Further, in assay [5], the Kd is less than 0.00566 nM, the koff was less than 1e-05 s⁻¹ and the kon is 1.77e+06 M⁻¹ s⁻¹. In assay [6], the binding result was “no binding (tested: 100 nM)”.

B4: Chimeric antibody 12B12 (antibody, V domains shown)
VH: DVQLVESGGGLVQPGGSRKLSCAASGFTFSNFGMHWVRQAPEKGLEWVAYISSGSTSFYYADTVKGRFTISRDNPKNTLFLQMTSLRSEDTAMYYCSRTNSLLRGFFDAWGAGTTVTVSS
VL: DIVLTQSPASLAVSLGQRATISCRASQSVSSSSYTYLHWYQQKPGQPPKLLIKSASNLESGVPARFSGTGSGTDFTLNIHPVEEEDTATYYCQHSWEIPLTFGAGTKLELK
notes: Mouse variable domains on human IgG1 heavy and human kappa light constant regions; also called c12B12; TPBG chimeric antibody 12B12
Turning to B4, the EC50 came out at 0.67 nM in assay [3], 0.33 nM in assay [4] and 0.137 nM with human TPBG-hFc protein. For the same molecule, in assay [5], the Kd worked out at 0.0102 nM. Also, the koff in assay [5] was determined as 1.64e-05 s⁻¹. For the same molecule, the kon in assay [5] turned out to be 1.61e+06 M⁻¹ s⁻¹. In addition, in assay [6], the binding result is “no binding (tested: 100 nM)”.
